From article PMC6642264, “Hydrophobic recognition allows the glycosyltransferase UGT76G1 to catalyze its substrate in two orientations” (Nature Communications, 2019)

Legend:
UGT76G1 [1] = target: T1, UGT76G1 (Stevia rebaudiana, UniProt Q6VAB4); test: X-ray crystal structure; type: binding
T1 construct: synthetic gene in pET21a (NdeI/XhoI), C-terminal hexa-histidine tag, E. coli BL21 (DE3), monomer
T1 sequence (Q6VAB4 1-458): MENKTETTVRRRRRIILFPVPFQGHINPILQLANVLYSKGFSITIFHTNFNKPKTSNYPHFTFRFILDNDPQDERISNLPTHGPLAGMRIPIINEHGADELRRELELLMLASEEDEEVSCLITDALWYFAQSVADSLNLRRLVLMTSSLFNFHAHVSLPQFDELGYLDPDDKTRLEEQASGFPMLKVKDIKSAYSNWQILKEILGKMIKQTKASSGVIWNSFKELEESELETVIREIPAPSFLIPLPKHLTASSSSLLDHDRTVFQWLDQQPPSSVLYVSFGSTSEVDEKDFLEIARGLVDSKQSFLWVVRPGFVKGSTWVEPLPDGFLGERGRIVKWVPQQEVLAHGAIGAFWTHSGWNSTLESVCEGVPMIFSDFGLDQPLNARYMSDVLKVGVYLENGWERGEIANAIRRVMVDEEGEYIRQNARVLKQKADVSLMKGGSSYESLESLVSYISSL

UGT76G1 [2] = target: T2, UGT76G1 (Stevia rebaudiana, UniProt Q6VAB4, H25A); test: X-ray crystal structure; type: binding; details: sodium citrate pH 5.4, PEG 4000; 1 mM UDP
T2 construct: synthetic gene in pET21a (NdeI/XhoI), C-terminal hexa-histidine tag, E. coli BL21 (DE3), monomer

purified protein [3] = substrate: C=C1C[C@@]23CC[C@H]4[C@@](C)(CCC[C@@]4(C)C(=O)O[C@@H]4O[C@H](CO)[C@@H](O)[C@H](O)[C@H]4O)[C@@H]2CC[C@]1(O[C@@H]1O[C@H](CO)[C@@H](O)[C@H](O)[C@H]1O[C@@H]1O[C@H](CO)[C@@H](O)[C@H](O)[C@H]1O)C3; test: purified protein; details: UDPG 100 μM; transfer at R1 (initial rate, <10% consumption)
purified protein [4] = substrate: C=C1C[C@@]23CC[C@H]4[C@@](C)(CCC[C@@]4(C)C(=O)O[C@@H]4O[C@H](CO)[C@@H](O)[C@H](O)[C@H]4O)[C@@H]2CC[C@]1(O[C@@H]1O[C@H](CO)[C@@H](O)[C@H](O[C@@H]2O[C@H](CO)[C@@H](O)[C@H](O)[C@H]2O)[C@H]1O[C@@H]1O[C@H](CO)[C@@H](O)[C@H](O)[C@H]1O)C3; test: purified protein; details: UDPG 100 μM; transfer at R2
[5] = substrate: C=C1C[C@@]23CC[C@H]4[C@@](C)(CCC[C@@]4(C)C(=O)O)[C@@H]2CC[C@]1(O[C@@H]1O[C@H](CO)[C@@H](O)[C@H](O)[C@H]1O[C@@H]1O[C@H](CO)[C@@H](O)[C@H](O)[C@H]1O)C3; test: UDP-Glo glycosyltransferase assay, Michaelis-Menten fit; type: biochemical, Stevia rebaudiana; details: UDPG 100 μM; transfer at R1
From the text: (§1) UDP-Glo glycosyltransferase assay, Michaelis-Menten fit on UGT76G1

[6] = substrate: C=C1C[C@@]23CC[C@H]4[C@@](C)(CCC[C@@]4(C)C(=O)O[C@@H]4O[C@H](CO)[C@@H](O)[C@H](O)[C@H]4O)[C@@H]2CC[C@]1(O[C@@H]1O[C@H](CO)[C@@H](O)[C@H](O)[C@H]1O)C3; test: as above; type: biochemical, Stevia rebaudiana; details: UDPG 100 μM; transfer at R1 (initial rate, <10% consumption)
From the text: as §1

[7] = substrate: C=C1C[C@@]23CC[C@H]4[C@@](C)(CCC[C@@]4(C)C(=O)O[C@@H]4O[C@H](CO)[C@@H](O)[C@H](O)[C@H]4O[C@@H]4O[C@H](CO)[C@@H](O)[C@H](O)[C@H]4O)[C@@H]2CC[C@]1(O[C@@H]1O[C@H](CO)[C@@H](O)[C@H](O)[C@H]1O[C@@H]1O[C@H](CO)[C@@H](O)[C@H](O)[C@H]1O)C3; test: as above; type: biochemical, Stevia rebaudiana; details: UDPG 100 μM; transfer at R1 (initial rate, <10% consumption)
From the text: as §1

[8] = substrate: O=c1ccn([C@@H]2O[C@H](CO[P@@](=O)(O)O[P@@](=O)(O)O[C@H]3O[C@H](CO)[C@@H](O)[C@H](O)[C@H]3O)[C@@H](O)[C@H]2O)c(=O)[nH]1; test: as above; type: biochemical, Stevia rebaudiana; details: sugar donor; acceptor STB 50 μM
From the text: as §1

T2 sequence (Q6VAB4 whole entry H25A): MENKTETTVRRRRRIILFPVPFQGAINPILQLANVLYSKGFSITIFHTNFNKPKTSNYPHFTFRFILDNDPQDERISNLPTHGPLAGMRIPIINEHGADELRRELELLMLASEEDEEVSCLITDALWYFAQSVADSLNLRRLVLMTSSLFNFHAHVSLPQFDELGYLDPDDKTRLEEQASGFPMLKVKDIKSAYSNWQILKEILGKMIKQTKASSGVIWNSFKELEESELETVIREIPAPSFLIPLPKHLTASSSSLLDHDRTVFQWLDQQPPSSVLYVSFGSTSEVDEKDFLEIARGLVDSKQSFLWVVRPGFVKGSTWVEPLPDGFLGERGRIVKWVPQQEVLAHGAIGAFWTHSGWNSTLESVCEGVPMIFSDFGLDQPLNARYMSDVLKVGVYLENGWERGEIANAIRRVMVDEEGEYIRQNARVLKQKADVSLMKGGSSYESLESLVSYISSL

## C=C1C[C@@]23CC[C@H]4[C@@](C)(CCC[C@@]4(C)C(=O)O[C@@H]4O[C@H](CO)[C@@H](O)[C@H](O)[C@H]4O)[C@@H]2CC[C@]1(O[C@@H]1O[C@H](CO)[C@@H](O)[C@H](O)[C@H]1O)C3 [Rubu]
UGT76G1 [1]; ternary complex with UDP, bound at active site, second remote molecule called artifact
  X-ray crystal structure: the wild type with UDP and Rubu

## O=c1ccn([C@@H]2O[C@H](COP(=O)(O)OP(=O)(O)O)[C@@H](O)[C@H]2O)c(=O)[nH]1 [UDP]
UGT76G1 [2]
  X-ray crystal structure: both the wild type and H25A mutant of UGT76G1 with UDP
UGT76G1 [1]; sodium citrate pH 5.4, PEG 4000, 1 mM UDP
  X-ray crystal structure: both the wild type and H25A mutant of UGT76G1 with UDP

B1: UGT76G1 (Stevia rebaudiana) (protein)
chain: T1 sequence (Q6VAB4 1-458)
notes: synthetic gene in pET21a (NdeI/XhoI), C-terminal hexa-histidine tag, E. coli BL21 (DE3), monomer
Purified protein [3]
  Km: 25.5 ± 3.4 µM
  kcat: 0.697 s⁻¹
  kcat/Km: 27300 M⁻¹ s⁻¹
Purified protein [4]
  Km: 243.4 ± 28.1 µM
  kcat: 0.002 s⁻¹
  kcat/Km: 8 M⁻¹ s⁻¹
[5]
  Km: 4.8 ± 0.4 µM
  kcat: 0.08 ± 0.00167 s⁻¹
  kcat/Km: 16500 M⁻¹ s⁻¹
[6]
  Km: 54.4 ± 4.0 µM
  kcat: 0.0983 ± 0.00167 s⁻¹
  kcat/Km: 1800 M⁻¹ s⁻¹
[7]
  Km: 9.2 ± 0.7 µM
  kcat: 0.355 ± 0.00833 s⁻¹
  kcat/Km: 38600 M⁻¹ s⁻¹
[8]
  Km: 5.6 ± 0.4 µM
  kcat: 0.0683 ± 0.00167 s⁻¹
  kcat/Km: 12400 M⁻¹ s⁻¹
